Source: the domain aggregation screens of Martell et al. (2025)

Assay: soluble fraction after stress (log2 fold change); higher = more stays soluble; pooled small domains, quantitative proteomics
Details: stress: pH 4
How it was run: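 Pooled custom libraries of small protein domains were stressed at pH 4 and then measured by high-throughput quantitative proteomics. The fold change in the amount of each domain that stays soluble after the acid stress serves as a measure of aggregation propensity. Fold changes are given on a log2 scale, and higher values mean more of the domain stayed soluble.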

Sequence | soluble fraction (log2)
HMNADTVIGKAGTVIEKIDNVAATGAVKIDGKVWTARSERDNITIDEGTLVKAMAIEGVKLIVEPVT | 0.0947
HMGSLPPPKDGTTIYVVKPGDSLWRISGKFFGNPLFWPRLWEINPNIDNPNKIYPGDVISLKP | 0.219
HMGRLPMNIVRAIVEHLDRHASYSEINRATGASKGFISKVAAAVEAASLTPEKFLLLNDEDIQNRITPGR | -0.133
HMNEIYHQIKVDNVSDDDISLFQYSGIEFDHADYRRGEYIEFAISNRDLSILNNLGYEYQVVHH | -1.07
HMRPTDVLNYDESMRILNFSNNRVGFKHLMDAKGIEQVIFKNRKIGYRKSEILALKSELEAEQK | -0.0346
HMRDFTQPQTASIGPRMREALARGTMTVEELREQFRTQEFPHESVRTAFLEELERVAAELGLA | -1.62
HMTANTQVENIRLELQRYMDEHGISQVTVARGIGKTHPVISQFLNNKYPGDVEEVARAIESWLTKQHEKAA | 0.381
HMNKLKALREEQGLSMMEIAKQLNMPYTTYVNYEKGTREPNSEMLIKFSKFFNVTIDYLIGNSEQKN | -0.129
HMLDSPHDDLNRKIVQMLQNDGRLPYKDIAEVLSVSEGTVRNRVQRMRDAGMLNIVALIDPMAI | -0.498
HMGEKTLSEKVYDRLKELIMDGELERGTKITETSIAKMFDVSPTPVREAFRKLASDGLIEVASWKGVIVKG | 0.338
HMGHKKLTIELQDEIIVLPKELEKYNLTVSDDKTSLIYTYKSRGEKTGITDLLRDIKDAGLRLKDLITEQ | -0.0229
HMVEELDVQFIKLTVQGDHPWKNKKIRELSIPWDLLFVLIIRGDKSIIPNGKTTIKDGDIVVVSAPEYRG | -1.5
HMSPTDKATVNVYALNVRTGPGTNYKVLGSVIKGTELQVLGSSGKWLKVKYGNREAYVAGWLVK | 0.118
HMTAIWKTITATLTHDIATGKYAPGDRLPTEAQLAARFGVNRHTVRRAISDMNESGLTYSRRGAGVFVAQ | ≥ 0.43
HMNIILFLDELHRLLSDLPPEERNQAIKYYEDYFEDAGPENEQAILKELGSPQELANQIKATT | -1.36
HMQNVFARKNLTSVSVDKLGEEEILLFKQSFESKNLTSSEALRDLSKKGMSEAELRKLKVRLTQL | -0.177
HMTGMEAAEFGKRIMKLRKQKGMTQSKLAEQINVSNKAISRWETGEGFPEITLLKPLAKALGTTVDELFGE | -0.271
HMEPMTDQQILEGFAEFKRQNPDLMNRPATQAIVNLTLPGGTPISFRSGAGAAALNQYLESIGMRAGP | -0.0242
HMWPQIAGFADRFGLSDTERRIVTLMSHGRSRKIIASTLGYSQNTIRNYTRNIYAKAGVHSKQELLDLLDP | -0.117
HMGGNDALEIAKSNPQVIEVLGEPVTKDGMGSYSVNYKNGHKTSEATIPIEGPNGTATLHVKTSGSDDAL | 0.22
HMHESLAEVAARKLRALIVTGELAPGERVTEAGLTDLLEISRTPAREAIRILSSEGLLVVFPNRGAEVV | -0.815
HMQAPVDPIVLGKMGSSYGIRGWLRVFSSTEDAESIFDYQPWFIQKAGQWQQVQLESWKHHNQDMIIKLN | 0.179
HMIAGHLQIKNDYYYMVLSYTDSDGKRKQPWIPTGLPMKGNKKRAEKMLIETRQTYVPPVSSG | 0.203
HMRPRGTRLPTGWTPSSDALDWTKAEKPGLDPLQTLEKFRDYWTAQPGQKGVKTDWDATWRNWVRREIP | 0.0989
HMRSKTSYAVWTPIQIDAGSQMQALQSKGFNTVLMEGGISVGIRSDKAQAQALLNRLQGAGFTGQLREVN | 0.259
HMEQWVSIEVEPGIRLDVALTEATQKSRSFIQNLIAEQRVLVNGQPKKANYKVRPGDHVELNYPEPT | -0.415

Sequence | soluble fraction (log2)
HMSIQELMNSKDLSSFKVEMLSDEDIAKYKGLLQNSGLTEAQAEQMALQRGLPSSELLKLKARLSGI | 0.0846
HMKQPNFTVIETKILELLFQKDLSSREMQEILKISKDNLIFALQNLLEQEKIVLQTSNTYTVN | -2.02
HMDLDSGVAVLRTLMSQHNLQTDDFQNEIGGKSMVSMILNGTRKLSKNHIQALSGRFNLSPALFF | -0.494
HMEIPTPAELREKRIRMGLKQADVARMAGISQSMVARIESGSVDPRVSTLAKIVEVLQAAER | 0.185
HMITKEDVANKKVNLLFFGNFHKMKLPDFEWGITEMMQDRDYLYGSLTKDLYFLGLVLDRKYKI | 0.124
HMKNTIPVPHIIGLSEQEARETLERAGLQLNVIKTEPNTKYESGQVTDTNPNEGIKVPKGTIVNVVLADS | -0.0342
HMFPELSEEAKVIVDALSKENDQQLNVLIANTGMAVGTMQAKLFELEMQGVVKPLAGSVYHLM | 0.22
HMKDLTIRQQQFLNYIKDHLSLTGFPPTRSDIANEMGFKSPNAAEDHLRALARKGAIEIVPGTSRGIRLP | 0.0783
HMSVPRPSAVEVTSLVTGVRDLLPHLGEGYVERVLVEFGFKVDETINALLEGNLPKHLQDLDPSLTKEI | -1.25
HMIMVAGHLQIKKGKYYMVLELKSESGERKTKWISTGLSAKGNKRKAEAMLEEARENYQSTDA | -0.0361
HMNGPTPEEKLAVVNAEFVRQYGDEYEELELEGEELEEYYQKALNKEDFEYDIPHLPGWDEP | -0.905
HMQINLKQSSDEELVKIITVQVHHYEPHTVKAAEAEIERRGIDKMRMAHLVKKVAQENTAVQEIQD | 0.134
HMKASEMKKGQTIKIDGVLYVIVDFQHVKLSKGGAVYQTKLRNLAAGGIRDIRIRAEEVLEDA | -0.515
HMGDEPGAGYKWREDVLLRVMSEHGIDESARDDFVRHAVKFDDDDNLYLKKAEIIAAAEAWESSS | -2.05
HMGLNPSILVKLGNANIKTIDNLADLASDELKEILEDISITSKEADEIIMRARSSWFEEDDKKEDNI | 0.175
HMKEAISIYPNPVKDILTIRGMDETSGVSFKLYDVTGNLLLESTHSELDMSGLNRGVYFLDIAGDVRKVVK | -1.07
HMDSYADVLSDYRGKYKTNTISGLKGLRDKIREDMLAAADSLDFEKAALLRDEMNDLNKKIELKEKT | -0.486
HMSKKIVLPAAITVKKFSETLDMPLGTVISELMKNGILATINERIDFETASIIAQDLGYEVSEEV | 0.0626
HMGSQLYTLEVEADEKISLIENNPLLIQKIYLKDNNLFSYKIASSSKTEIASIEKELEKNPSIKRLETA | -0.502
HMGVGIEALAVEVDRIRQVLTGGGALSDIQLFSQLKALGEVKTALSSMTDPRARELEKRVAQLLEASLRT | -0.323
HMDKFKDVGARIREARKVQKLSQADLAERLQISTSHMSDIENGKKNIGLDIFMRLTEALQVSADWLL | -0.567
HMTADIRFLNSRKFYIYKVEKGETLFSISQKFNIPQEEIIQFNKDINQQGLKAKTKLWVPAYSWL | -0.43
HMSDFSSNLRRLRKRAGLSQDALAEKLSVARQTVSSWERGNSYPDLDMLVRISDALATDPNELLYPN | 0.0655
HMIERLVEFVHTLRHSGVRVSMAEAMDAAEALRHTPITERQIFKTALQSVLVKEHQDIPAFDAAFERFFL | -0.728
HMQIVHKHLQLQPDQGALRAALYSHKAVVAEQVNEQGAINLEIKLAESDFLRLLKSSGLKLQDLVSLS | -1.16
HMDDPTVILFDPKNGQRKIVKWKAGLTLYSARRSAGISSAAEATIQRAGKSLSGRTATALEPGDVIRW | 0.203

Sequence | soluble fraction (log2)
HMFHDALVSFAERRVIFMKELVNRLNEARKAYYEGESIMSDKEYDNLYDKLVKMELTTGVVLPNSPTEEVG | -0.754
HMNTKHVFIIEQDDEKKRLDIFLVEKLQDSRSFLKKGIVEGWVKVNESVVKPNYKLKQKDQITVIIPP | -0.396
HMAQNILPGQKNAIKSLATSAGFSQQELDSYLSQNYGKTLNNLSQKEGASLISGLQDGSIKKP | 0.0359
HMRDISTDTSAWTFQDIKRYYDPQDLLTEKQVGQALSLIKGRNLNPLLNEVYIVAYKKKNGGAEFSLIV | -0.286
HMVSTEDEISDKLLLDFALEKLSENEKQIVKLRYYNSLTQSKTAEILNMTQVQVSRSEKKILAKLRGII | 0.0807
HMSLPNNLIEQLQDPEPKARRRAVRRLAATRDPSAIPLLRNVYLQDGDDRVRDAAEAALVQFRAMQHN | 0.104
HMTDVGLEAAKAAALKHAGLSADQVTGLTAKLDWDDGQRVYEVDFWQGSTEYEYEINADGTVRQYESEAH | -0.469
HMNEPMITEVKRINYGSIKEIAKNLDVFKGKNGTVIIDERTNTLILTDLSENIEKMLWSIEITD | -0.855
HMVDIIMDLLEAVAQARPADAFIKSLHIQYQERGGLSKKQLQGLYGKAAKTAGIPPGKLATLEAIILKRP | -0.0377
HMELNKNDLKIIKNISHIYPYFTPVKILQLILSKKFKTIDYNKILKSTSILTTDRSHLYYILNN | 0.22
HMPFNREYWIEQLLKEVGLMGTPYAELDKHEVELDSPTGRASGFKVNAKTYVDQQLLFIENEYNNQPE | -0.899
HMNLDVPGIIKRAKQALNLKRDSELAEFLGVSRATVTNWAARNSIDFRLLLDKLGNTVDYNWLLLGKGNPK | -0.188
HMVGNEEALRAIVESIIAQNTTEVASFREGKEGLIGWFLGQVMRQTGGKADPKLARQILLELLKQ | -0.492
HMPSLSAILHDARVAAGLSMRQASAASGLSIGFISMLEQGKVQDISLQRLGRLVTAYDLEPLDVIEAAG | -0.848
HMPIKYTHKGYTINVSRSKMNGTTFVKVVDPKGQVIQQSQDNRIQDVNQLVTTMKQYIDTLKPS | -0.0336
HMNREYELTAEESGQRLDKYLAGEMTDLSRSRIKELVQAGEILVNGKKSKVSYKVQKDDLIQVIVLPLE | -0.0759
HMLESVMHSRIAEIISREGTAPAHMSMQEKIRVVHKLDADGILMMKGAVAEIADQLSVSVPTIYRYLNKPQ | ≥ 0.43
HMELVIGESLAVELLRPGKEDGQALGYLPDGSMVVVNNGRAFVGKRVTAEIIGVIRSAGGKMVFSNLLGE | -2
HMEREKTYLMPDLIGRKAERVVPRLQASGFKVEDIRHVYYPGLEKGVIVRQSPPGGYPIQKRNLINLEVS | 0.0984
HMHSEEAALLHRYIDSLEEPQHTVVVMRDIGGYSFEEIASVVQLKEAHIWMILSRARRKLRELYIKTMDHH | -0.101
HMEVLPLHQVKLKYAEADTILIALKSAQSMLSPRGQLLADNRSQQIFVYDDEAHTATLIEAIKHLDQPL | -0.32
HMSVAPISYSQFESYLEQGKVASVAVGQDTIAGRFTAPVDGKSQFVTTIVNPQILDRIDKSGVEITGV | -0.175
HMLGRPDMSPIPEGSRNNDLHAWGFGRLANHPDNKRQIEADFFERGRISGLGDAEIRASWNSILRQLGHQ | 0.276
HMKWYDSDKGFGFLSQEEGEDVYVRSSALPAGVEGLKAGQRVEFGIASGRRGPQALSL | -0.71
